Experimental data reported in patent US20240197828A1, “Chimeric molecule to treat sepsis and other inflammatory conditions” (THE FEINSTEIN INSTITUTES FOR MEDICAL RESEARCH, priority 2022, published 2024).

Test system: WT mice
Experiment: Sterile eCIRP-induced inflammation by rmCIRP injection in mice
Type: in vivo, mouse
Conditions: 4 hours, vs eCIRP alone
Protocol: FIG. 5A-5B. eCIRP-induced inflammation is attenuated by MOP3. WT mice were treated according to respective groups: PBS (volume equivalent), rmCIRP (5 mg/kg), or MOP3 (10 μg/kg) co-incubated with rmCIRP (5 mg/kg) for 30 mins prior to r.o. injection. After 4 hours, serum was measured for IL-6 (A) and TNFα (B) levels by ELISA. All experiments were performed 3 times, and all data were used for analysis (N=7-10). Data are expressed as mean±SEM and compared by one-way ANOVA and SNK test. *p<0.05 vs. PBS, #p<0.05 vs. eCIRP.
Adult (8-12 weeks) male, C57BL/6 wild-type (WT) mice (20-30 g) were purchased from Charles River Laboratories. MFG-E8 knockout mice (MFG-E8^−/−) were originally obtained from Dr. Shigekazu Nagata, Osaka University of Japan, and bred following our Institutional Animal Care and Use Committee (IACUC) policies. Age-matched, healthy mice were used in all experiments. Animals were randomly assigned to sham, vehicle, or treatment groups. Concerted effort was made to ensure that a limited number of animals were used in each experiment. […] For the design of in vivo models, sample size calculation was driven by variability, effect size, significance level and power as determined through performance of early feasibility and optimization pilot studies. […]
The mouse macrophage cell culture supernatants were analyzed for cytokine levels using ELISA kits (BD Biosciences, CA). […] TNF-α and IL-6 levels were measured in cell supernatants by ELISA in accordance with respective manufacturers' instructions (BD Biosciences, CA). Blood was collected, centrifuged at 4,000 RPM for 10 minutes, and sera was separated and analyzed for cytokine levels using ELISA kits (BD Biosciences, CA). TNF-α and IL-6 levels in the serum were measured by ELISA in accordance with respective manufacturers' instructions.
Serum levels of aspartate transaminase (AST), alanine transaminase (ALT), and lactate dehydrogenase (LDH) were determined using calorimetric enzymatic assays (Pointe Scientific, Canton, MI) according to the manufacturer's instructions.

[1] = rmCIRP 5 mg/kg co-incubated 30 min with test substance, r.o. injection

B1: milk fat globule-epidermal growth factor—factor VIII (protein, listed as Mus musculus)
chain: MQVSRVLAALCGMLLCASGLFAASGDFCDSSLCLNGGTCLTGQDNDIYCLCPEGFTGLVCNETERGPCSPNPCYNDAKCLVTLDTQRGDIFTEYICQCPVGYSGIHCETETNYYNLDGEYMFTTAVPNTAVPTPAPTPDLSNNLASRCSTQLGMEGGAIADSQISASSVYMGFMGLQRWGPELARLYRTGIVNAWTASNYDSKPWIQVNLLRKMRVSGVMTQGASRAGRAEYLKTFKVAYSLDGRKFEFIQDESGGDKEFLGNLDNNSLKVNMFNPTLEAQYIKLYPVSCHRGCTLRFELLGCELHGCSEPLGLKNNTIPDSQMSASSSYKTWNLRAFGWYPHLGRLDNQGKINAWTAQSNSAKEWLQVDLGTQRQVTGIITQGARDFGHIQYVASYKVAHSDDGVQWTVYEEQGSSKVFQGNLDNNSHKKNIFEKPFMARYVRVLPVSWHNRITLRLELLGC
significantly reduced: serum IL-6 levels [1] | serum TNFα levels [1] | LDH levels (tissue injury) (rmCIRP 5 mg/kg with rmMFG-E8 40 μg/kg)
